Changes are numbered by the printed parent chain. In names and notes the source's numbering stands.
Tests used:
[1] = target: T1, soluble human FcRn (heterodimer of FcRn alpha chain and beta2-microglobulin) (human, UniProt P55899 24-297; P61769 21-119); assay: SPR (Biacore), hFcRn, measured in multiplicates; n=7
T1 construct: Signal regions are part of the expressed constructs; also called hFcRn

soluble human FcRn [2] = target: T2, soluble human FcRn (human, UniProt P55899 24-297; P61769 21-119); assay: SPR (Biacore), pH 6.0
T2 construct: Heterodimer of alpha chain and beta2-microglobulin; also called hFcRn
T2 sequence (P55899 24-297 limits assumed, chain 1 of 2): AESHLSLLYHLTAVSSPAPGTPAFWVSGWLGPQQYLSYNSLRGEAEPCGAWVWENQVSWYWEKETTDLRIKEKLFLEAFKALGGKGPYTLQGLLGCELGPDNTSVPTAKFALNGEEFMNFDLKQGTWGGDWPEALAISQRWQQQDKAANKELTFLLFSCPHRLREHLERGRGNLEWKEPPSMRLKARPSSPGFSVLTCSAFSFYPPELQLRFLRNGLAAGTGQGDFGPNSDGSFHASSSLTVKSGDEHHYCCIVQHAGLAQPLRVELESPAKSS
T2 sequence (P61769 21-119 limits assumed, chain 2 of 2): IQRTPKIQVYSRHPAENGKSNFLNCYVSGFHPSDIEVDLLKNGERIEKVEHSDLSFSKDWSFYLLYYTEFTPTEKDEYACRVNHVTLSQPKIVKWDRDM

soluble human FcRn [3] = target: T2, soluble human FcRn; assay: SPR (Biacore), pH 6.0; Table 26 series (4-5), a different experiment from Table 25; pH 6.0
soluble human FcRn [4] = target: T2, soluble human FcRn; assay: SPR (Biacore), pH 6.0; pH 6.0 (acidic pH, not neutral pH)
human IgE [5] = target: T3, human IgE (human); assay: SPR Biacore T200, 37 C; pH 5.8, 1.2 mM Ca
T3 construct: Recombinant antigen; variable region derived from an anti-human glypican3 antibody; also called hIgE
Experimental: (§1) Human IgE was immobilized onto the chip by injecting it at an appropriate concentration so as to be trapped by the biotinylated GPC3 peptide. […] Then, 10 mmol/L glycine-HCl (pH 1.5) was injected to regenerate the sensor chip. The interaction was always measured at 37 degrees C. The measurement result was analyzed by curve fitting using Biacore T200 Evaluation Software (GE Healthcare) to calculate the association rate constant ka (1/Ms) and dissociation rate constant kd (1/s). The dissociation constant KD (M) was calculated from the above-described constants.

human IgE [6] = target: T3, human IgE; assay: SPR Biacore T200, 37 C; pH 5.8, 3 microM Ca
Experimental: as §1

human IgE [7] = target: T3, human IgE; assay: SPR Biacore T200, 37 C; ratio of KD, pH dependency
Experimental: as §1

human IgE [8] = target: T3, human IgE; assay: SPR Biacore T200, 37 C; ratio of KD, pH/Ca dependency
Experimental: as §1

human IgE [9] = target: T3, human IgE; assay: SPR Biacore T200, 37 C, hIgE captured via biotinylated GPC3 peptide, Ab analyte; pH 7.4, 1.2 mM Ca
Experimental: as §1

[10] = target: T4, biotinylated GPC3 peptide (chemically-synthetized peptide having a human glypican 3 protein-derived sequence, … (human, C-terminal Lys is biotinylated)); assay: SPR (Biacore T200), capture of human IgE on Sensor chip SA carrying the biotinylated GPC3 peptide, 37 degrees C
T4 construct: Synthetic peptide immobilized on Sensor chip SA through biotin-streptavidin
T4 peptide: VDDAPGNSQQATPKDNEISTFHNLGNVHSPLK

T1 sequence (P55899 24-297 limits assumed, chain 1 of 2): as the sequence (P55899 24-297 limits assumed, chain 1 of 2) above
T1 sequence (P61769 21-119 limits assumed, chain 2 of 2): as the sequence (P61769 21-119 limits assumed, chain 2 of 2) above

B1: Fv-4-F652 (antibody, human IgG1, kappa)
heavy: QVQLQESGPGLVKPSETLSLTCAVSGHSISHDHAWSWVRQPPGEGLEWIGFISYSGITNYNPSLQGRVTISRDNSKNTLYLQMNSLRAEDTAVYYCARSLARTTAMDYWGEGTLVTVSSASTKGPSVFPLAPSSKSTSGGTAALGCLVKDYFPEPVTVSWNSGALTSGVHTFPAVLQSSGLYSLSSVVTVPSSSLGTQTYICNVNHKPSNTKVDKKVEPKSCDKTHTCPPCPAPELLGGDSVFLFPPKPKDTLYISRTPEVTCVVVDVSHEDPEVKFNWYVDGVEVHNAKTKPREEQYNSTYRVVSVLTVLHQDWLNGKEYKCKVSNKALPAPIEKTISKAKGQPREPQVYTLPPSRDELTKNQVSLTCLVKGFYPSDIAVEWESNGQPENNYKTTPPVLDSDGSFFLYSKLTVDKSRWQQGNVFSCSVMHEALHYHYTQKSLSLSP
light: DIQMTQSPSSLSASVGDSVTITCQASTDISSHLNWYQQKPGKAPELLIYYGSHLLSGVPSRFSGSGSGTDFTFTISSLEAEDAATYYCGQGNRLPYTFGQGTKVEIERTVAAPSVFIFPPSDEQLKSGTASVVCLLNNFYPREAKVQWKVDNALQSGNSQESVTEQDSKDSTYSLSSTLTLSKADYEKHKVYACEVTHQGLSSPVTKSFNRGEC
notes: VH3-F652 (P238D/M252Y/N434Y) and VL3-CK
Question: With B1 as the binder, how does the Kd [1] read?
Answer: 240 nM

B2: Fv-4-LS (antibody, human IgG1, kappa)
heavy: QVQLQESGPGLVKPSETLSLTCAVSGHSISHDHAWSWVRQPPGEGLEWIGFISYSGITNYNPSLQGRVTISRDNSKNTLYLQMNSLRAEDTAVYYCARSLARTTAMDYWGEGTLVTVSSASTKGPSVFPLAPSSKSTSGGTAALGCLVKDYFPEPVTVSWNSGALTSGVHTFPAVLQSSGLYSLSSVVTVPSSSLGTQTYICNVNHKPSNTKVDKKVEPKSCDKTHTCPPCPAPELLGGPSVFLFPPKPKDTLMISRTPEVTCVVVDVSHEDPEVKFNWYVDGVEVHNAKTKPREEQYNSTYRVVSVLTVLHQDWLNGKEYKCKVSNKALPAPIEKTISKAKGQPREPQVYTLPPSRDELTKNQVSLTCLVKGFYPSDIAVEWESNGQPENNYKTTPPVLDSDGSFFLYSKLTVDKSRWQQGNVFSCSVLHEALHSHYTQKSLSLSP
light: B1 light
notes: also called F22
Question: For B2, which Kd (soluble human FcRn [2]) is on record?
Answer: 160 nM

Question: And the Kd (soluble human FcRn [3])?
Answer: 71 nM

B3: Fv-4-YTE (antibody, human IgG1, kappa)
heavy: B1 heavy with D240P, S256T, T258E, Y436N
light: B1 light
Question: For B3, which Kd (soluble human FcRn [4]) is on record?
Answer: 210 nM

B4: clone 278 (antibody, human IgG1, kappa, V domains shown)
VH: QSLEESGGRLVTPGTPLTLTCTASGFSLSSYHMSWVRQAPGKGLEWIGVINSAGNTYYASWAKGRFTVSKTSTTVDLNLTSLTTEDTATYFCARYVFSSGSHDIWGPGTLVTVSS
VL: AYDMTQTPASVEVAVGGTVTIKCQASQSIGSWLAWYQQKPGQPPKELIYGTSTLESGVPSRFIGSGSGTEFTLTISGVECADAATYYCQQGYSEDNIDNAFGGGTEVVVKR
notes: human IgG1 heavy chain constant region and human light chain constant region
Question: What does the source list for B4?
Answer: Kd (human IgE [5]): 2000 nM; koff (human IgE [5]): 0.23 s⁻¹; kon (human IgE [5]): 120000 M⁻¹ s⁻¹; Kd (human IgE [6]): 3900 nM; koff (human IgE [6]): 0.24 s⁻¹; kon (human IgE [6]): 62000 M⁻¹ s⁻¹; KD (pH 5.8, 1.2 mM Ca)/KD (pH 7.4, 1.2 mM Ca) (human IgE [7]): 842; KD (pH 5.8, 3 microM Ca)/KD (pH 7.4, 1.2 mM Ca) (human IgE [8]): 1640; Kd (human IgE [9]): 2.4 nM; koff (human IgE [9]): 0.0036 s⁻¹; kon (human IgE [9]): 1.5e+06 M⁻¹ s⁻¹

B5: human IgE (recombinant; variable region derived from an anti-human glypican3 antibody) (other)
heavy: QVQLVQSGAEVKKPGASVKVSCKASGYTFTDYEMHWVRQAPGQGLEWMGALDPKTGDTAYSQKFKGRVTLTADKSTSTAYMELSSLTSEDTAVYYCTRFYSYTYWGQGTLVTVSSASTQSPSVFPLTRCCKNIPSNATSVTLGCLATGYFPEPVMVTWDTGSLNGTTMTLPATTLTLSGHYATISLLTVSGAWAKQMFTCRVAHTPSSTDWVDNKTFSVCSRDFTPPTVKILQSSCDGGGHFPPTIQLLCLVSGYTPGTINITWLEDGQVMDVDLSTASTTQEGELASTQSELTLSQKHWLSDRTYTCQVTYQGHTFEDSTKKCADSNPRGVSAYLSRPSPFDLFIRKSPTITCLVVDLAPSKGTVNLTWSRASGKPVNHSTRKEEKQRNGTLTVTSTLPVGTRDWIEGETYQCRVTHPHLPRALMRSTTKTSGPRAAPEVYAFATPEWPGSRDKRTLACLIQNFMPEDISVQWLHNEVQLPDARHSTTQPRKTKGSGFFVFSRLEVTRAEWEQKDEFICRAVHEAASPSQTVQRAVSVNPGK
light: DVVMTQSPLSLPVTPGEPASISCRSSQSLVHSNRNTYLHWYLQKPGQSPQLLIYKVSNRFSGVPDRFSGSGSGTDFTLKISRVEAEDVGVYYCSQNTHVPPTFGQGTKLEIKRTVAAPSVFIFPPSDEQLKSGTASVVCLLNNFYPREAKVQWKVDNALQSGNSQESVTEQDSKDSTYSLSSTLTLSKADYEKHKVYACEVTHQGLSSPVTKSFNRGEC
notes: Used as antigen; also called hIgE
Question: Does B5 bind [10]?
Answer: binds
